Assay results: PMC8571288 (Nature Communications, 2021)

Columns and labels:
[1] = molecular target: T1, CTC1Δ700N-ST complex (CTC1 lacking its N-terminal 700 residues, with STN1 and TEN1-His6) (human, UniProt Q2NKJ3 701-1217; Q9H668 1-368; Q86WV5 1-123); experiment: pull-down; 1 μM CST or CTC1Δ700N-ST (His6 on TEN1) with 1 μM RAD51, RecA or RPA, 20 min 37 °C, buffer D (35 mM Tris-HCl pH 7.5, 10% glycerol, 0.01% Igepal, 1 mM 2-mercaptoethanol) with 5 mM imidazole and 50 mM KCl; for RPA without DNA or with 2 μM 30-nt ssDNA; captured on His-Tag Dynabeads; SDS-PAGE, Coomassie; settings: both partners purified
T1 construct: CTC1, human, with the N-terminal 700 residues removed (CTC1Δ700N); STN1, human, subunit of the CST complex; TEN1, human, subunit of the CST complex; also called CTC1∆700N-ST; not shown: His6, C-terminal, kept; copies: + +
T1 sequence (looked up) 1: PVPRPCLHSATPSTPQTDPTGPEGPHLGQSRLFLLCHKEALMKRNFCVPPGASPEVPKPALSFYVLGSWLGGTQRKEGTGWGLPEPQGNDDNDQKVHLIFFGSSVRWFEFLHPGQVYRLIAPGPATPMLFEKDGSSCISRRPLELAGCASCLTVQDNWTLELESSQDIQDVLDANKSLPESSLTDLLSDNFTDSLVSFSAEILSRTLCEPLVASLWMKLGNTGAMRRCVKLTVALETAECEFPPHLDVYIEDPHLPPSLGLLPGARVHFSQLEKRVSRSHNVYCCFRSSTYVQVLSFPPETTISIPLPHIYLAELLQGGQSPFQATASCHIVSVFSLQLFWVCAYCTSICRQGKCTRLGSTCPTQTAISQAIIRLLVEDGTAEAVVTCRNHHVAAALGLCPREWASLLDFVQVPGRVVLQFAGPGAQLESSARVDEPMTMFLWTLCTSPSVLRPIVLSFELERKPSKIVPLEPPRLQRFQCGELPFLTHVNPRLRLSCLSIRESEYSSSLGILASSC
T1 sequence (looked up) 2: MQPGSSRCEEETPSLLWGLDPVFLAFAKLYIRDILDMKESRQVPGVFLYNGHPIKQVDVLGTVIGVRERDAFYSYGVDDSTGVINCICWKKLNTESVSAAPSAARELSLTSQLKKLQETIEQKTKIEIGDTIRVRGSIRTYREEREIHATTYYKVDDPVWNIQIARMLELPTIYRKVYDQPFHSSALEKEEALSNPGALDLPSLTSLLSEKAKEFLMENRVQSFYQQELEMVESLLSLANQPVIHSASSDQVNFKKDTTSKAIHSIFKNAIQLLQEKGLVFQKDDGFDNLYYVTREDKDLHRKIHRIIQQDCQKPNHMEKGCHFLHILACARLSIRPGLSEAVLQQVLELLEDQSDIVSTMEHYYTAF
T1 sequence (looked up) 3: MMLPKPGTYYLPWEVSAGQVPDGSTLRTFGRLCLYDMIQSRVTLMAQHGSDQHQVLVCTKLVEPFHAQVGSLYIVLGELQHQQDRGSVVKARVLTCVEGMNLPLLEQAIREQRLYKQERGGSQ

[2] = molecular target: T2, human CST complex (Flag-CTC1-STN1-TEN1-His6) (human, UniProt Q2NKJ3 1-1217; Q9H668 1-368; Q86WV5 1-123); experiment: as above; settings: both partners purified
T2 construct: CTC1, human, subunit of the CST complex; STN1, human, subunit of the CST complex; TEN1, human, subunit of the CST complex; also called wild-type CST; not shown: Flag, N-terminal, kept; His6, C-terminal, kept; copies: + +

binding result [1]: binds
binding result [2]: binds
B1: human RAD51 (natural protein, UniProt Q06609 1-339, looked up)
chain: MAMQMQLEANADTSVEEESFGPQPISRLEQCGINANDVKKLEEAGFHTVEAVAYAPKKELINIKGISEAKADKILAEAAKLVPMGFTTATEFHQRRSEIIQITTGSKELDKLLQGGIETGSITEMFGEFRTGKTQICHTLAVTCQLPIDRGGGEGKAMYIDTEGTFRPERLLAVAERYGLSGSDVLDNVAYARAFNTDHQTQLLYQASAMMVESRYALLIVDSATALYRTDYSGRGELSARQMHLARFLRMLLRLADEFGVAVVITNQVVAQVDGAAMFAADPKKPIGGNIIAHASTTRLYLRKGRGETRICKIYDSPCLPEAEAMFAINADGVGDAKD
notes: RAD51 recombinase, human
